± gives the standard error. For some of these results: Fewer inactive variants are shown than the library holds.
B1: glmS ribozyme (parent)
chain: AUAAAAGCGCCAGAACUACAGAAAUGUAGUUGACGAGGAGGAGGUUUAUCGAAUUUUCGGCGGAUGCCUCCAAA

Assays:
Conditions in all cases: with glucosamine-6-phosphate
glucosamine-6-phosphate [1] = variants of: B1; assay: kcat; higher = faster cleavage; RNA array
Outline: (§1)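 Tiles of sequenced MiSeq chips were imaged over ~14 h at 37 °C. On them, barcoded ribozyme variants had been transcribed in situ by E. coli RNA polymerase and were tracked via a hybridised Cy3 probe while glucosamine-6-phosphate (40 μM to 10 mM) in HEPES/KCl/Mg(OAc)2 buffer flowed in. Per-tile medians, normalised to baseline and to non-cleaving reference variants, were fit to one- or two-exponential decays for kobs, and weighted Michaelis–Menten fits gave kcat and KM.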

glucosamine-6-phosphate [2] = variants of: B1; assay: self-cleavage kobs at 640 uM GlcN6P; higher = faster cleavage; RNA array
Outline: as §1

glucosamine-6-phosphate [3] = variants of: B1; assay: self-cleavage kobs at 2500 uM GlcN6P; higher = faster cleavage; RNA array
Outline: as §1

glucosamine-6-phosphate [4] = variants of: B1; assay: self-cleavage kobs at 10000 uM GlcN6P; higher = faster cleavage; RNA array
Outline: as §1

glucosamine-6-phosphate [5] = variants of: B1; assay: self-cleavage kobs at 160 uM GlcN6P; higher = faster cleavage; RNA array
Outline: as §1

glucosamine-6-phosphate [6] = variants of: B1; assay: KM; higher = weaker cofactor use; RNA array
Outline: as §1

glucosamine-6-phosphate [7] = variants of: B1; assay: self-cleavage kobs at 40 uM GlcN6P; higher = faster cleavage; RNA array
Outline: as §1

| Variant | kcat (glucosamine-6-phosphate [1]) [s⁻¹] | self-cleavage kobs at 640 uM GlcN6P (glucosamine-6-phosphate [2]) [s⁻¹] | self-cleavage kobs at 2500 uM GlcN6P (glucosamine-6-phosphate [3]) [s⁻¹] | self-cleavage kobs at 10000 uM GlcN6P (glucosamine-6-phosphate [4]) [s⁻¹] | self-cleavage kobs at 160 uM GlcN6P (glucosamine-6-phosphate [5]) [s⁻¹] | KM (glucosamine-6-phosphate [6]) [µM] | self-cleavage kobs at 40 uM GlcN6P (glucosamine-6-phosphate [7]) [s⁻¹] |
| --- | --- | --- | --- | --- | --- | --- | --- |
| U47A A48G | 7.44e-05 ± 1.1e-05 | 7.58e-05 ± 2e-05 | 8.16e-05 ± 2.9e-05 | 6.69e-05 ± 1.3e-05 | – | – | – |
| A48G C50A G63A | < 1e-05 | – | – | < 1e-05 | < 1e-05 | – | – |
| G13A G66A | 0.000323 ± 2.9e-05 | – | 0.000129 ± 3.2e-05 | 0.000241 ± 4.7e-05 | – | 3550 ± 700 | – |
| G51U U69A | 5.12e-05 ± 2.4e-05 | 7.72e-05 ± 1.7e-05 | – | – | – | – | – |
| A48U C71G | 4.92e-05 ± 1e-05 | 4.04e-05 ± 7.5e-06 | 6.5e-05 ± 9.8e-06 | 3.69e-05 ± 8e-06 | – | – | – |
| G51U C67A C71U | 2.47e-05 ± 3.5e-06 | – | – | – | – | – | – |
| C68G C70U | 2.04e-05 ± 6.3e-06 | 3.32e-05 ± 1.3e-05 | – | – | – | – | – |
| A15U G38U | < 1e-05 | – | – | – | < 1e-05 | – | < 1e-05 |
| A14C C16U | 0.00104 ± 0.00016 | 0.000451 ± 4.8e-05 | 0.000655 ± 7.7e-05 | 0.00118 ± 0.00016 | 0.000144 ± 1.9e-05 | 922 ± 250 | 5.34e-05 ± 1.1e-05 |
| C11A A53G | 0.000202 ± 9.2e-06 | 4.47e-05 ± 1e-05 | 0.000112 ± 1.2e-05 | 0.000164 ± 1.8e-05 | – | 2130 ± 240 | – |
| A15U A33G | < 1e-05 | – | – | < 1e-05 | – | – | – |
| G29U C50A | < 1e-05 | – | – | – | – | – | < 1e-05 |
| U46A G66U | 0.0037 ± 0.001 | 0.000412 ± 7.3e-05 | 0.00111 ± 0.00027 | 0.00229 ± 0.00041 | 8.12e-05 ± 1.9e-05 | 5940 ± 2100 | 5.04e-05 ± 2.3e-05 |
| C10G G60C | 0.00245 ± 0.00047 | 0.000733 ± 8.9e-05 | 0.00117 ± 0.00023 | 0.00198 ± 0.00023 | 0.000167 ± 2.9e-05 | 2180 ± 610 | 3.56e-05 ± 6.7e-06 |
| U31G A52G | 0.000431 ± 4.6e-05 | 8.36e-05 ± 1.2e-05 | 0.000178 ± 3.1e-05 | 0.000352 ± 4.6e-05 | – | 2820 ± 530 | – |
| G7U A48U C50G U54G | 3.22e-05 ± 1.3e-05 | – | – | – | – | – | – |
| C67U C70U C71U | 1.14e-05 ± 1.2e-06 | – | – | – | – | 339 ± 160 | – |
| G32A U54A | 0.00386 ± 0.001 | 0.00067 ± 0.00011 | 0.00157 ± 0.00026 | 0.00286 ± 0.00045 | 0.000125 ± 2.9e-05 | 3520 ± 1300 | 6.3e-05 ± 1.3e-05 |

| Variant | kcat (glucosamine-6-phosphate [1]) [s⁻¹] | self-cleavage kobs at 640 uM GlcN6P (glucosamine-6-phosphate [2]) [s⁻¹] | self-cleavage kobs at 2500 uM GlcN6P (glucosamine-6-phosphate [3]) [s⁻¹] | self-cleavage kobs at 10000 uM GlcN6P (glucosamine-6-phosphate [4]) [s⁻¹] | self-cleavage kobs at 160 uM GlcN6P (glucosamine-6-phosphate [5]) [s⁻¹] | KM (glucosamine-6-phosphate [6]) [µM] | self-cleavage kobs at 40 uM GlcN6P (glucosamine-6-phosphate [7]) [s⁻¹] |
| --- | --- | --- | --- | --- | --- | --- | --- |
| A14G U56C | 0.021 ± 0.0052 | 0.0033 ± 0.00071 | 0.0088 ± 0.0011 | 0.0157 ± 0.0028 | 0.000647 ± 0.00018 | 3490 ± 1200 | 0.000291 ± 4.2e-05 |
| C50U C68U | 2.09e-05 ± 3.8e-06 | – | 3e-05 ± 1.2e-05 | – | – | – | – |
| G13C A48G | < 1e-05 | – | < 1e-05 | < 1e-05 | – | – | – |
| G41U A42C | 1.89e-05 ± 1.4e-06 | – | – | – | < 1e-05 | 2750 ± 590 | < 1e-05 |
| G62U U69A | 2.59e-05 ± 3.9e-06 | – | – | – | – | – | – |
| A15U C16U | 0.00176 ± 0.00028 | 0.000423 ± 9.6e-05 | 0.000885 ± 0.00016 | 0.00172 ± 0.00026 | 0.000152 ± 3.2e-05 | 1750 ± 440 | 4.63e-05 ± 9.6e-06 |
| G32C G37C | < 1e-05 | – | – | < 1e-05 | – | – | < 1e-05 |
| G13A G40A | 0.000179 ± 1.9e-05 | – | 5.48e-05 ± 1.2e-05 | 0.00011 ± 1.8e-05 | – | 6100 ± 1200 | – |
| A6U U46C | 2.4e-05 ± 7.8e-07 | – | – | – | < 1e-05 | 2710 ± 290 | – |
| C16U A48U C58G C70G | 4.36e-05 ± 1.5e-05 | 7.73e-05 ± 3e-05 | – | – | 4e-05 ± 1.8e-05 | – | – |
| U30C C68A | 3.05e-05 ± 8e-06 | – | 3.62e-05 ± 1.1e-05 | – | – | – | – |
| A12U A33U C67U | 0.000242 ± 4.7e-05 | – | – | 0.000146 ± 2.9e-05 | – | 6520 ± 2600 | – |
| G13U A39G | 0.00264 ± 0.00039 | 0.000749 ± 0.00012 | 0.00177 ± 0.0003 | 0.00208 ± 0.00023 | 0.000147 ± 3.4e-05 | 2070 ± 520 | 5.19e-05 ± 1.1e-05 |
| A53G U55C | 0.0183 ± 0.0057 | 0.00872 ± 0.0013 | 0.0106 ± 0.0024 | 0.0167 ± 0.0032 | 0.00157 ± 0.00027 | 1230 ± 510 | 0.000669 ± 7.9e-05 |
| A14G G29C | 0.000331 ± 6.9e-05 | 9.55e-05 ± 8.8e-06 | 0.000253 ± 2.6e-05 | 0.00028 ± 2.9e-05 | 6.33e-05 ± 1.1e-05 | 1330 ± 540 | – |
| A15C U56A G63C C70A | 5.44e-05 ± 1.8e-05 | – | 7.34e-05 ± 3.6e-05 | – | 5.41e-05 ± 2.2e-05 | – | – |
| A12G A39C | 0.000267 ± 1.7e-05 | 6.42e-05 ± 1.1e-05 | 0.000144 ± 1.2e-05 | 0.00022 ± 2.2e-05 | – | 2130 ± 300 | – |
| G40C U45A | 0.00147 ± 0.00022 | 0.000631 ± 7.8e-05 | 0.00123 ± 0.00018 | 0.00131 ± 0.00019 | 0.000183 ± 3.5e-05 | 823 ± 200 | 7.94e-05 ± 9.2e-06 |

Reference: the supplement of paper PMC7125110
